The assay addresses nucleosome core particle (recombinant Xenopus laevis histone octamer on 147 bp 601 DNA) (Xenopus laevis). The experiment in a line: native gel or EMSA; as the gel shift with nucleosome cores (50 nM), at higher concentrations of HMGN1 (methods: 2-800 nM); ESI Fig. S9.3.

For “full-length recombinant HMGN1 (HMGN1_1–99, unmodified) (natural protein)”, the stoichiometry N (HMGN1 molecules per nucleosome) is above 2.

For the origin of these results see PMC8341956.
